Experimental data reported in patent US20140154245A1 (L AND K BIOMED, published 2014).
Values belong to the binder of their own block, whether it stands above or below them.

Legend:
[1] = target: T1, human EMAPII (endothelial monocyte activating polypeptide II) antigen (human, UniProt Q12904 1-312, limits assumed); experiment: ELISA, EMAPII antigen coated on the plate, antibody titrated
T1 construct: also called EMAPII antigen; p43
T1 sequence: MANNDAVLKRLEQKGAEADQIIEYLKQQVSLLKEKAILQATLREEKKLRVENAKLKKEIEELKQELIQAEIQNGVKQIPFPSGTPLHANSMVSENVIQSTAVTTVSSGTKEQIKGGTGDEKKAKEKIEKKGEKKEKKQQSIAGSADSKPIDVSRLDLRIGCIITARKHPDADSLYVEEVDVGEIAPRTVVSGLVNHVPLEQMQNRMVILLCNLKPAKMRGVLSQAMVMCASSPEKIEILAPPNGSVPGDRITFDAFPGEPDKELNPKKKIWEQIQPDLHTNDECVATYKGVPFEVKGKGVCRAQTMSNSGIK
Description: (§1) Wells of a 96 well plate were coated with 100 μl of different concentrations of EMAPII antigen (10 μg/ml, 5 μg/ml, 2.5 μg/ml, 1 μg/ml, 0.5 μg/ml, 0.2 μg/ml) and were incubated at 37° C. for 2 hours. The coated antigens were blocked using BSA and washed with washing buffer. Dilutions of the parental murine anti-EMAPII antibody (starting at 1 μg/ml, two-fold serial dilution) were added to the antigens and incubated for 2 hours. The mixture was washed three times and anti-IgG-HRP antibody was added to the mixture and incubated for 1 hour. The mixture was washed with washing buffer three times. The substrate was added to the mixture and maintained for 30 minutes. After developing, stop solution was added and detected absorbance at the wavelength of 450 nm (FIG. 12). Bound antibody was detected with anti-mouse IgG-HRP conjugate. A concentration of 2.5 μg/ml antigen was selected for testing the chimeric clones.
(§2) The ability of mouse/human chimeric antibody BAP015_{—}1 to bind to the EMAPII antigen was determined by using the ELISA protocol provided by StemScience and the optimized conditions determined as described above. Bound chimeric antibody was detected with anti-human-IgG HRP conjugate (FIG. 13). All 3 clones tested bind to EMAPII. The binding curves of all 3 clones are very similar to each other and to the murine antibody.

[2] = target: T1, human EMAPII (endothelial monocyte …); experiment: ELISA, EMAPII antigen coated on the plate, antibody titrated (3 clones)
Description: as §1, §2

EC50 [1]: 0.0209 µg/mL
B1: mouse anti-EMAPII monoclonal antibody (antibody, V domains shown)
VH: QVQLQQSGAELARPGASVKMSCKASGYTFTSYTMHWVKQRPGQGLEWIGYINPSSGFTNYNQKFKDKATLTADKSSSTAYMQLSSLTSEDSAVYYCASRFAYWGQG
VL: DIVMTQSHKFMSTSVGDRVSITCKASQDVSTAVAWYQQKPGQSPKLLIFSASYRYTGVPDRFTGSGSGTDFTFTISSVQAEDLAVYYCQQHYSTPYTFGQG
notes: Mouse IgG1 with kappa light chain, from a hybridoma; also called murine EMAPII mAb; parental murine anti-EMAPII antibody

EC50 [2]: 0.0215 to 0.0302 µg/mL
B2: mouse/human chimeric antibody BAP015-1 (antibody, V domains shown)
VH: B1 VH
VL: B1 VL
notes: VL is fused to a human kappa constant region and VH to a human IgG1 constant region (full-length IgG1, from CHO-S supernatant); Three plasmid clones of the same construct were tested; they are treated as one molecule; also called chimeric anti-EMAPII antibody; chimeric clone BAP015-1
